In US20240261333A1 (published 2024):

What was measured:
Assay in all cases: co-IP with anti-FLAG, mass spectrometry; lysate of cells with N-FLAG B3GNT2
RPS4X = RPS4X (human, UniProt P62701 2-263)
Procedure: (§1) Cells were plated in 10-cm cell culture dishes and grown to 60-80% confluency. For each condition, two biological replicates were harvested for co-IP. Cells were washed with PBS and 4 mL of lysis buffer (20 mM HEPES, 1% Triton X-100, 150 mM NaCl, 1 mM EDTA, and 10% glycerol) containing protease inhibitor cocktail was added. Cells were scraped and lysate was incubated at 4° C. under rotary agitation for 1 h. Lysate was centrifuged at 14,000×g for 10 min at 4° C. Supernatant was transferred to a new tube and an aliquot was taken as the input. […] For Western blots, 10 μg/mL Chicken Anti-FLAG (Aves labs ET-DY100) and IgY control (R&D Systems AB-101-C) antibodies were biotinylated (Thermo Fisher Scientific 90407) and added to the respective conditions. Lysates with antibodies were incubated at 4° C. under rotary agitation overnight. For each mL of lysate, 50 μL of Pierce Protein A/G Magnetic Beads (Mass spectrometry; Thermo Fisher Scientific 88803) or Pierce Streptavidin Magnetic Beads (Western blot; Thermo Fisher Scientific 88817) was washed twice with lysis buffer. Lysates with antibodies were added to the beads and incubated at 4° C. under rotary agitation for 4 h. Beads were washed with lysis buffer 3 times and resuspended in lysis buffer for storage.
(§2) Magnetic beads were resuspended in 100 mM Tris pH 7.8, reduced, alkylated and digested with trypsin at 37° ° C. overnight. This solution was subjected to solid phase extraction to concentrate the peptides and remove unwanted reagents followed by injection onto a Shimadzu HPLC with fraction collector. Eight fractions were collected and after concentration were injected on a Waters NanoAcquity HPLC equipped with a self-packed Aeris 3 μm C18 analytical column 0.075 mm by 20 cm, (Phenomenex). Peptides were eluted using standard reverse-phase gradients. The effluent from the column was analyzed using a Thermo Orbitrap Elite mass spectrometer (nanospray configuration) operated in a data dependent manner for 54 minutes. The resulting fragmentation spectra were correlated against the known database using Proteome Discover 1.4 (Thermo Fisher Scientific).

TOR1AIP2 = target: T1, TOR1AIP2 (human, UniProt Q8NFQ8 2-470)
T1 construct: also called NP_001336864.1 (+1)
Procedure: as §1, §2

CCT2 = target: T2, CCT2 (human, UniProt P78371-2 1-488, limits assumed)
T2 construct: also called NP_001185771.1 (+1)
T2 sequence (looked up): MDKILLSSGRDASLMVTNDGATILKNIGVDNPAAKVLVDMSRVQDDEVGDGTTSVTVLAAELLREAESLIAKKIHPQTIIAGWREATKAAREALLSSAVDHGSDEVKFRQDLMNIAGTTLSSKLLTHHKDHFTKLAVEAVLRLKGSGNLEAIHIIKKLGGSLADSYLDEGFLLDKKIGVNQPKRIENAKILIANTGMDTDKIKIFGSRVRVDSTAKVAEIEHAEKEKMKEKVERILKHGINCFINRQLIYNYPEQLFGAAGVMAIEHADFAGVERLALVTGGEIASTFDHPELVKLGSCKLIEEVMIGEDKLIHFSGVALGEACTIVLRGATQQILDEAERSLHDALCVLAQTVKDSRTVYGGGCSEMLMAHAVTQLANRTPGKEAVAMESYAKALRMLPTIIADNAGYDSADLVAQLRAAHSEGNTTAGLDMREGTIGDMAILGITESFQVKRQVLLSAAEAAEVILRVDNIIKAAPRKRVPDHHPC
Procedure: as §1, §2

RARS = target: T3, RARS (human, UniProt P54136 1-660)
T3 construct: also called NP_002878.2
T3 sequence (looked up): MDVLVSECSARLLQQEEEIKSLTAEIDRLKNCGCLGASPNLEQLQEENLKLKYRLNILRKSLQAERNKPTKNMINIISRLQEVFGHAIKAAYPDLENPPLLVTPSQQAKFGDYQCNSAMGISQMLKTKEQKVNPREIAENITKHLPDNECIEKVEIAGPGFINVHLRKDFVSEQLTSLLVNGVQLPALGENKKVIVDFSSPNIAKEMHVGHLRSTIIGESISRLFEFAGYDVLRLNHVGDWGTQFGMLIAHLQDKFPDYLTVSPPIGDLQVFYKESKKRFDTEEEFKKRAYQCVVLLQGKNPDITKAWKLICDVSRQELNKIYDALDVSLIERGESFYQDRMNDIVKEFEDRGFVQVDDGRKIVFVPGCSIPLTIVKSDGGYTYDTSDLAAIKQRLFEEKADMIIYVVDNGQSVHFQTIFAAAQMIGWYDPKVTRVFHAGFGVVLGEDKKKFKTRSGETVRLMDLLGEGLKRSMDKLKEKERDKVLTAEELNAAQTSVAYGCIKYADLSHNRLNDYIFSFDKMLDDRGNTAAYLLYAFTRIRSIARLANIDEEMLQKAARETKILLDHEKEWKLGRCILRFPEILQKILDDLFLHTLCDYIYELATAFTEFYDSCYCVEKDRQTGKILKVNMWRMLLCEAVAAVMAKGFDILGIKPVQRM
Procedure: as §1, §2

RPL32 = RPL32 (human, UniProt P62910 2-135)
Procedure: as §1, §2

CCT7 = target: T4, CCT7 (human, UniProt Q99832-3 1-499, limits assumed)
T4 construct: also called NP_001159757.1 (+1)
T4 sequence (looked up): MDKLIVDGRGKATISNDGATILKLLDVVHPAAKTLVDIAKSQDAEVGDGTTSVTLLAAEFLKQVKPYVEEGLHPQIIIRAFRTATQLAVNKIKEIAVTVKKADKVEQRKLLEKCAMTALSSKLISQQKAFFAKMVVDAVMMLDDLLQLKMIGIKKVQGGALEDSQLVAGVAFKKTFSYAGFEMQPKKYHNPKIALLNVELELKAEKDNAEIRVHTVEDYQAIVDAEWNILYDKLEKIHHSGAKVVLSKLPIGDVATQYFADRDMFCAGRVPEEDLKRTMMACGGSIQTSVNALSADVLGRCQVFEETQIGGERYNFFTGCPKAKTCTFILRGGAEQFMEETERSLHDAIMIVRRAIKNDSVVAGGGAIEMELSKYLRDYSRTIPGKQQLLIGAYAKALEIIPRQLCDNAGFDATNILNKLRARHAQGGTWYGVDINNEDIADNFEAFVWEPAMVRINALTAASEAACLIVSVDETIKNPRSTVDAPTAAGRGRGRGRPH
Procedure: as §1, §2

T1 sequence (Q8NFQ8 2-470 limits assumed): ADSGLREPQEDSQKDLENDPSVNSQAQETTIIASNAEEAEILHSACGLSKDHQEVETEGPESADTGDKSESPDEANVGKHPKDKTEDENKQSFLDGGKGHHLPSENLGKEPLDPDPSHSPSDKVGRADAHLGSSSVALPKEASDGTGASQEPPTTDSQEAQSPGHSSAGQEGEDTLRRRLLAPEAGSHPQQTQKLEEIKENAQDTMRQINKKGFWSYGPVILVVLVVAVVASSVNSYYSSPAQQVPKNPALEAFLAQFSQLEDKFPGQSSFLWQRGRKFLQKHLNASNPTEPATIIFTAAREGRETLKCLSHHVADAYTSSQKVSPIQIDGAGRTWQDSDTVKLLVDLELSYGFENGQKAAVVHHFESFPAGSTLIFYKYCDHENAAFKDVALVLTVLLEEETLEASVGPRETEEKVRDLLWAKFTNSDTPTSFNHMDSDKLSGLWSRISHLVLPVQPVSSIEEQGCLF

co-IP mass spectrometry count (RPS4X): 14
co-IP mass spectrometry count (TOR1AIP2): 0
co-IP mass spectrometry count (CCT2): 0
co-IP mass spectrometry count (RARS): 0
co-IP mass spectrometry count (RPL32): 0
co-IP mass spectrometry count (CCT7): 0
B1: N-terminal FLAG tagged B3GNT2 (enzyme, human, UniProt Q9NY97 1-397, looked up)
chain: MSVGRRRIKLLGILMMANVFIYFIMEVSKSSSQEKNGKGEVIIPKEKFWKISTPPEAYWNREQEKLNRQYNPILSMLTNQTGEAGRLSNISHLNYCEPDLRVTSVVTGFNNLPDRFKDFLLYLRCRNYSLLIDQPDKCAKKPFLLLAIKSLTPHFARRQAIRESWGQESNAGNQTVVRVFLLGQTPPEDNHPDLSDMLKFESEKHQDILMWNYRDTFFNLSLKEVLFLRWVSTSCPDTEFVFKGDDDVFVNTHHILNYLNSLSKTKAKDLFIGDVIHNAGPHRDKKLKYYIPEVVYSGLYPPYAGGGGFLYSGHLALRLYHITDQVHLYPIDDVYTGMCLQKLGLVPEKHKGFRTFDIEEKNKNNICSYVDLMLVHSRKPQEMIDIWSQLQSAHLKC
notes: Bait of the co-IP; pulled down with mouse anti-FLAG (Millipore Sigma F3165) from cell lysate; also called N-FLAG B3GNT2; N-term FLAG; not shown: N-terminal FLAG tag
